Measured values as given in the supplement of paper PMC7125110.
± gives the standard error. This sample holds only a part of the variants without activity.

B1: glmS ribozyme (parent)
chain: AUAAAAGCGCCAGAACUACAGAAAUGUAGUUGACGAGGAGGAGGUUUAUCGAAUUUUCGGCGGAUGCCUCCAAA

Variants of: B1
Test: self-cleavage kobs at 2500 uM GlcN6P; higher = faster cleavage; RNA array
Settings: with glucosamine-6-phosphate
Method in brief: (§1)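 Barcoded ribozyme variants on sequenced MiSeq chips were transcribed in situ by E. coli RNA polymerase and followed at 37 °C through a hybridised Cy3 probe. Glucosamine-6-phosphate at 40 μM to 10 mM in HEPES/KCl/Mg(OAc)2 buffer was flowed in, and tiles were imaged over ~14 h. Signals were normalised to baseline and to non-cleaving reference variants, and per-tile medians were fit to one- or two-exponential decays to give kobs. Weighted Michaelis–Menten fits across concentrations gave kcat and KM.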

Going from AUAAAAGCGCCAGAACUACAGAAAUGUAGUUGACGAUGAGGACGUUUCUCGAAUUUUCGGUGUAUGCCUCCAAA [G37U G43C A48C C61U G63U] to AUAAAAGCGCCAGACCUACAGAAAUGUAGUUGACGAGGAGGAGGUUUAUCGAAUUUUCGGCGGAUUGCUCCAAA [A15C G66U C67G], the “self-cleavage kobs at 2500 uM GlcN6P” value rises from under 1e-05 s⁻¹ to 4.27e-05 ± 1.7e-05 s⁻¹.

First: AUAAAAGCGCCAGAACUACAGAAAUGUAGUUGACCAGGAGGAGUUUUAUCGGAAUUUCGGCGGAUGUCUCCAAA [G35C G44U A52G U54A C67U]
Second: AUAAAAGCGCCAGAACUACAGAAAUGUAGUUGACGAGGAGGAGGUUAAUCGAAUUUUCGGCGGAUGCGGCCAAA [U47A C68G U69G]
The “self-cleavage kobs at 2500 uM GlcN6P” value of the first is lower: under 1e-05 s⁻¹ for the first, 7.59e-05 ± 3.7e-05 s⁻¹ for the second.

AUAAAAGCGCCAGAACUACAGAAAUGUAGGAGACAAGGGGGAGGUUUAUCCAAUUUUCAGCGGAUGCCUCCAAA [U30G U31A G35A A39G G51C G59A] and AUAAAAGCGCCAGGACUACAGAAAUGUAGUUGACGAGGAGAAGGUUUAUCGAAUUUUCGUCGGAUGCCUCCAAA [A14G G41A G60U] cannot be ordered by “self-cleavage kobs at 2500 uM GlcN6P” value: under 1e-05 s⁻¹ for the first, under 1e-05 s⁻¹ for the second.

AUAAAAGCGCCAUAACUACAGAAAUGUAGUUGACGAGGAGGCGGUUCAUCGAAUUUCCGGCGGAUGCCUCCAAA [G13U A42C U47C U57C] and AUAAACGCGCCGGAGCUACAGAAAUGUAGUUGACGAGGAGGAGGUUUAUCGAAUUUUCGGCGGAUGCCUCCAAA [A6C A12G A15G] cannot be ordered by “self-cleavage kobs at 2500 uM GlcN6P” value: under 1e-05 s⁻¹ for the first, under 1e-05 s⁻¹ for the second.

Going from AUAAAAGCGGCAGUACUACAGAAAUGUAGUUUACGAGGAGGAGGUUUAUCGAAUUUUCGGAGAAUGCCUCCAAA [C10G A14U G32U C61A G63A] to AUAAAAGCGCGAGAACUACAGAAAUGUAGUUGACGAGGAGGAGGUUAAUGGAAUUUUCGGCGGAUGCCUGCAAA [C11G U47A C50G C70G], the “self-cleavage kobs at 2500 uM GlcN6P” value rises from under 1e-05 s⁻¹ to 0.000352 ± 8.9e-05 s⁻¹.

AUAAAAGCGCCAGAACUACAGAAAUGUAGUUAACGAGGAAGAGGUUUAUCGAAUUUUCGGCGGAUGCCGCCAAA [G32A G40A U69G] and AUAAAAGCGCCAGAACUACAGAAAUGUAGUUUACGAGGAGGAGGUUUAUUGAAUUUUCGGCGGAUGCCUCCAAA [G32U C50U] cannot be ordered by “self-cleavage kobs at 2500 uM GlcN6P” value: under 1e-05 s⁻¹ for the first, under 1e-05 s⁻¹ for the second.

AUAAAAGCGCCAGAACUACAGAAAUGUAGUUGACGAGGAGUAGGUUUAUCGAUUUUUCGUAGGAUUCCUCCAAA [G41U A53U G60U C61A G66U] and AUAAAAGCGCCAUAACUACAGAAAUGUAGUUGACGAGGAGGAUGUUUAUCGAAUUUUCGGGGGAUGCCUCCAAA [G13U G43U C61G] cannot be ordered by “self-cleavage kobs at 2500 uM GlcN6P” value: under 1e-05 s⁻¹ for the first, under 1e-05 s⁻¹ for the second.

AUAAAAGCGCCAGAUCUACAGAAAUGUAGUUUACGGGGAGGAGGUUUAUCGAAUUUUCGGCGGGUGCUUCCAAA [A15U G32U A36G A64G C68U] and AUAAAGGCGCCACAACUACAGAAAUGUAGUUGACGAGGAGGAGGUUUAUCGAAUUUUCGGCGGAAGCCCCCAAA [A6G G13C U65A U69C] cannot be ordered by “self-cleavage kobs at 2500 uM GlcN6P” value: under 1e-05 s⁻¹ for the first, under 1e-05 s⁻¹ for the second.

First: AUAAAAGCGCCAGAACUACAGAAAUGUACUUGACGAGGAGGAGGUUUAUCUAAUUUUCGGCGGAUGGCUCCAAA [G29C G51U C67G]
Second: AUAAAAGCGCUAGAACUACAGAAAUGUAUUUGACGAGGAGGAGGUUUAUCGAAUUUUCGGCGGAUGGCUCCAAA [C11U G29U C67G]
The “self-cleavage kobs at 2500 uM GlcN6P” value of the first is 3.3-fold lower: 5.96e-05 ± 2.8e-05 s⁻¹ for the first, 0.000197 ± 6.6e-05 s⁻¹ for the second.

First: AUAAAAGCGCCAGAACUACAGAAAUGUAGUUGACGAGGAGGAGGUUUAUCGAAUUUUCGGCGGAUAUCUUCAAA [G66A C67U C70U]
Second: AUAAAAGCGCCGGAACUACAGAAAUGUAGUUGACGAGGAGGAGGUUUAUCUAAUUGUCGGCGGAUGCCUCCAAA [A12G G51U U56G]
The “self-cleavage kobs at 2500 uM GlcN6P” value of the first is higher: 0.000488 ± 0.00017 s⁻¹ for the first, under 1e-05 s⁻¹ for the second.

Going from AUAAAAGCGCCAGAACUACAGAAAUGUAGUUGAGGAGGAGGAGGUUUAUCGAAUUUGCGGCGGAUGCCUGCAAA [C34G U57G C70G] to AUAAAAGCGCCAGACCUACAGAAAUGUAGUUGACUAGGAGGAGGUUUAUCGAAUUUUCGGCGGAUGCCUGCAAA [A15C G35U C70G], the “self-cleavage kobs at 2500 uM GlcN6P” value falls from 0.00021 ± 4.8e-05 s⁻¹ to under 1e-05 s⁻¹.

AUAAAAGCGCCAGAACUACAGAAAUGUAGUUGACGAGGAUGAGGUUUCUUGAAUUUUCGGCGGAUGCCUCCAAA [G40U A48C C50U] and AUAAAAACUCCAGAACUACAGAAAUGUAGUUGACGAGGAGGAGGUUUAUCGAAUUUUCGGCGGAUGCCUCCAAA [G7A G9U] cannot be ordered by “self-cleavage kobs at 2500 uM GlcN6P” value: under 1e-05 s⁻¹ for the first, under 1e-05 s⁻¹ for the second.

AUAAAAGCGCCAGAACUACAGAAAUGUAGUUGACGAGGAGGAGGGUUAUCGUAUUUUCGGCGCAUGCCUCCAAA [U45G A52U G63C] and AUAAAAGCGCCACAACUACAGAAAUGUAGUUGACGAGGAGAAGGUUUAUCGAAUUUUCGGCCGAUGCCUCCAAA [G13C G41A G62C] cannot be ordered by “self-cleavage kobs at 2500 uM GlcN6P” value: under 1e-05 s⁻¹ for the first, under 1e-05 s⁻¹ for the second.

Going from AUAAAAGCGGCAGUACUACAGAAAUGUACUUGACGAGGAGGAGGUUUAACGGAUUUUCGGCGGAUGGCUCCAAA [C10G A14U G29C U49A A52G C67G] to AUAAAAGCGCCAGAAUUACAGAAAUGUAGUUGACGAGGGGGAGGUUUCUCGAAUUUUCGGCGGAUGCCUCCAAA [C16U A39G A48C], the “self-cleavage kobs at 2500 uM GlcN6P” value rises from 7.89e-05 ± 2.3e-05 s⁻¹ to 0.000168 ± 5e-05 s⁻¹ (2.1-fold).

AUAAAAGCGCCAAAACUACAGAAAUGUAGUUGACAAGGAGGUGGUUUAUCGAAUUUUCGGCGGAUGCCUCCAAA [G13A G35A A42U] and AUAAAAGCGCCAGAACUACAGAAAUGUAGUUGACAAGCAGGAGGUUUAUCGAAUUUUUGGCGGAUGCCUCCAAA [G35A G38C C58U] cannot be ordered by “self-cleavage kobs at 2500 uM GlcN6P” value: under 1e-05 s⁻¹ for the first, under 1e-05 s⁻¹ for the second.

AUAAAAGCGCUAGAACUACAGAAAUGUAGUUGACGAGGAAGAGGUAUAUCGAAUUUUCCGCGGAUGCCUCCAAA [C11U G40A U46A G59C] and AUAAAAGCGUCAGAACUACAGAAAUGUAGUGGACGAGGAGGAGGUUUAACGAAUUUUCGGCUGAUGCCUCCAAA [C10U U31G U49A G62U] cannot be ordered by “self-cleavage kobs at 2500 uM GlcN6P” value: under 1e-05 s⁻¹ for the first, under 1e-05 s⁻¹ for the second.

Variants of: B1
Test: self-cleavage kobs at 10000 uM GlcN6P; higher = faster cleavage; RNA array
Settings: with glucosamine-6-phosphate
Method in brief: as §1

Compared with AUAAAAGCGCCAGACCUACAGAAAUGUAGUUGACGAGGAGGAGGUUUAUCGAAUUUUCGGCGGAUUGCUCCAAA [A15C G66U C67G], AUAAAAGCGCCAUAACUACAGAAAUGUAGUUGACGAGGAGGCGGUUCAUCGAAUUUCCGGCGGAUGCCUCCAAA [G13U A42C U47C U57C] is lower in “self-cleavage kobs at 10000 uM GlcN6P” value: 0.000165 ± 4.9e-05 s⁻¹ for the first, under 1e-05 s⁻¹ for the second.

AUAAAAGCGCCAGAACUACAGAAAUGUAGUUAACGAGGAAGAGGUUUAUCGAAUUUUCGGCGGAUGCCGCCAAA [G32A G40A U69G] and AUAAAAGCGCCAGAACUACAGAAAUGUAGUUUACGAGGAGGAGGUUUAUUGAAUUUUCGGCGGAUGCCUCCAAA [G32U C50U] cannot be ordered by “self-cleavage kobs at 10000 uM GlcN6P” value: under 1e-05 s⁻¹ for the first, under 1e-05 s⁻¹ for the second.

AUAAAAGCGCCAGAAUUACAGAAAUGUAGUUGACGAGGGGGAGGUUUCUCGAAUUUUCGGCGGAUGCCUCCAAA [C16U A39G A48C] was tested, and the “self-cleavage kobs at 10000 uM GlcN6P” value was 0.000325 ± 9.5e-05 s⁻¹.
